# Values of other authors in PMC12704549.
# Target: pro-IL-18 (Homo sapiens) (UniProt Q14116)
# Sequence (Q14116 37-193): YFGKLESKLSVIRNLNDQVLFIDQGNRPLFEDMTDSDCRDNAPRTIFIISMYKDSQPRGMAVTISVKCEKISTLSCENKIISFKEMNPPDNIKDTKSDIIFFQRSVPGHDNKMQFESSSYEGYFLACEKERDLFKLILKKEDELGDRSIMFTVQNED
# Chain of caspase-4 (P49662 290-377): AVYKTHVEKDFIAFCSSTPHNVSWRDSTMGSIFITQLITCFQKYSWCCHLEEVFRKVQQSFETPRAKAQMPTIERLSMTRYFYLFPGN
substance,measurement,value
caspase-4 (from UniProt P49662),Kd,290 nM
